Reference: patent US20140154243A1 (Amgen, published 2014)

B1: antibody 2.12.1 (antibody, human IgG2, kappa, V domains shown)
VH: QVQLQESGPGLVKPSETLSLTCTVSGGSISIYYWSWIRQPPGKGLEWIGYVYYSGSTNYNPSLKSRVTISVDTSKNQFSLKLNSVTAADTAVYYCARGGYDFWSGYFDYWGQGTLVTVSS
VL: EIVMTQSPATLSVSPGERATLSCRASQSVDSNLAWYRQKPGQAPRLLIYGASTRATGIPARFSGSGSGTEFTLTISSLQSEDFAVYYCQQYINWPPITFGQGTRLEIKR
B2: antibody 2.4.4 (antibody, human IgG2, kappa, V domains shown)
VH: QVQLKESGPGLVKPSQTLSLTCTVSGGSISSGVYYWSWIRQHPGKGLEWIGYFYYSGNTYHNPSLKSRVTISVDTSKNQFSLKLSSVTAADTAVYYCARDRSGYDHPDAFDIWGQGTMVTVSS
VL: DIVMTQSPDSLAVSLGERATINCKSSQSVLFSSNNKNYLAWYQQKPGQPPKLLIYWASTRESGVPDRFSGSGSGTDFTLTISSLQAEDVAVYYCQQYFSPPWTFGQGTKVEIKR
notes: also called FITC-labeled antibody 2.4.4

Key:
[1] = biological target: T1, human hepatocyte growth factor (HGF) (human, UniProt P14210 32-728); assay: BIAcore 3000, kinetic method: antibody captured on immobilized Protein G, human HGF (0-100 nM) injected
T1 construct: Recombinant protein; The mature protein is a heterodimer of the alpha and beta subunits; also called human HGF; full length HGF
Excerpt: The running buffer for those analyses was PBS with 0.005% P20 surfactant (BIAcore, Inc. Piscataway, N.J.). Recombinant Protein G (Pierce, Rockford, Ill.) was immobilized to a research grade CM5 sensor chip (Biacore, Inc. Piscataway, N.J.) via primary amine groups using the Amine Coupling Kit (Biacore, Inc. Piscataway, N.J.), according to the manufacturer's instructions.
In six separate samples, about 200 resonance units (RU) of each of the six antibodies to HGF was separately attached to immobilized Protein G following the manufacturer's instructions. Samples comprising various concentrations (0-100 nM) of human HGF were injected over the bound antibody surface at a flow rate of 50 μl/min for 3 minutes. Antibody binding kinetic parameters including kₐ (association rate constant), kd (dissociation rate constant), and KD (dissociation equilibrium constant) were determined using the BIA evaluation 3.1 computer program (BIAcore, Inc. Piscataway, N.J.). Lower dissociation equilibrium constants indicate greater affinity of the antibody for HGF.

[2] = biological target: T1, human hepatocyte growth factor (HGF); assay: cell-based or functional assay
mouse HGF = biological target: T2, mouse HGF (mouse, UniProt Q08048 33-728); assay: FACS bead assay: antibody incubated with the avidin fusion of mouse HGF, captured on biotin-coated beads; FITC anti-avidin (x) against PE goat anti-human F(ab')2 (y)
T2 construct: also called recombinant mouse HGF; mHGF
Protocol: After incubation, the fusion proteins in each sample were separately captured using biotin-coated beads (Spherotech Inc., Libertyville, Ill., Cat # TP-60-5). The resulting bead-protein complexes were labeled by adding FITC labeled anti-avidin antibody (Vector Lab, Burlingame, Calif., Cat. # SP-2040). The presence of antibodies to HGF was determined by adding phycoerythrin (PE) labeled goat anti-human F(ab′)2 antibody (Southern Biotech Associates, Inc, Birmingham, Ala., Cat #2043-09).
Those samples were then subjected to Fluorescence Activated Cell Sorter (FACS) analysis. Bead complexes labeled by FITC (which indicated the presence of avidin) and/or PE (which indicated the presence of antibody to HGF) were detected on a Becton Dickinson Bioscience FACScan (BD, Franklin Lakes, N.J.).

[3] = biological target: T1, human hepatocyte growth factor (HGF); assay: neutralization ELISA (right table): inhibition of the binding of soluble Met (2 nM) to plate-coated HGF, detected with biotinylated anti-cMetR antibody and Eu-streptavidin; column head 'IC50 IP (nM)'
Protocol: A neutralization ELISA assay was developed to assess whether the antibodies discussed in Example 6 could interrupt Met-HGF binding. Delphia 96-well plates (Cat#: AAAND-0001, Wallac Inc., Gaithersburg, Md.) were coated with HGF by adding 100 μl of HGF at 6.25 μg/ml per well. The plates were incubated at 37° C. for 1 hour or at 4° C. overnight. The plates were then blocked with 5% BSA (Cat#50-61-00, KPL, Gaithersburg, Md.) in PBS containing 0.1% Tween 20 for 1 hour at room temperature with shaking.
Test samples were prepared by separately mixing soluble Met (2 nM, 0.256 μg/ml) with different concentrations of a particular antibody to HGF being tested. The concentrations tested were: 667 nM, 223 nM, 74.1 nM, 24.7 nM, 8.2 nM, 2.7 nM, 0.91 nM, 0.30 nM, 0.10 nM, and 0.034 nM. A volume of 100 μl of a test sample was added to each well of the plates. The plates were then incubated at 4° C. overnight and then washed 4 times with PBS containing 0.1% Tween 20. Next, 100 μl per well of Biotinylated anti-cMetR antibody (Cat#: BAF358, R&D Systems Inc., Minneapolis, Minn.) at 2 μg/ml, was added. […] The plates were then incubated for 2 hours with shaking, and were washed 4 times with PBS containing 0.1% Tween 20. Eu-streptavidin (1:1000 dilution in Assay buffer) (Cat#1244-360, Wallac Inc., Gaithersburg, Md.) was added and the plates were shaken at room temperature for 1 hour. The plates were then washed 4 times with PBS containing 0.1% Tween 20. Next, 100 μl of enhancement buffer (Wallac Inc., Cat#: 1244-105, Gaithersburg, Md.) was added. After at least for 5 minutes, the plates were read using Europium method on Victor 2 (1420 Multilabel Counter, Wallac Inc., Gaithersburg, Md.).
Percent inhibition of Met binding to HGF (i.e. neutralization) was calculated and IC₅₀ values were determined using the 4 parameter fit equation Excelfit, Version 2.0.6, (Microsoft Inc, Seattle, Wash.). In the presence of the antibodies to HGF discussed in Examples 6, Met binding to HGF was neutralized.

T1 sequence (P14210 32-728 limits assumed): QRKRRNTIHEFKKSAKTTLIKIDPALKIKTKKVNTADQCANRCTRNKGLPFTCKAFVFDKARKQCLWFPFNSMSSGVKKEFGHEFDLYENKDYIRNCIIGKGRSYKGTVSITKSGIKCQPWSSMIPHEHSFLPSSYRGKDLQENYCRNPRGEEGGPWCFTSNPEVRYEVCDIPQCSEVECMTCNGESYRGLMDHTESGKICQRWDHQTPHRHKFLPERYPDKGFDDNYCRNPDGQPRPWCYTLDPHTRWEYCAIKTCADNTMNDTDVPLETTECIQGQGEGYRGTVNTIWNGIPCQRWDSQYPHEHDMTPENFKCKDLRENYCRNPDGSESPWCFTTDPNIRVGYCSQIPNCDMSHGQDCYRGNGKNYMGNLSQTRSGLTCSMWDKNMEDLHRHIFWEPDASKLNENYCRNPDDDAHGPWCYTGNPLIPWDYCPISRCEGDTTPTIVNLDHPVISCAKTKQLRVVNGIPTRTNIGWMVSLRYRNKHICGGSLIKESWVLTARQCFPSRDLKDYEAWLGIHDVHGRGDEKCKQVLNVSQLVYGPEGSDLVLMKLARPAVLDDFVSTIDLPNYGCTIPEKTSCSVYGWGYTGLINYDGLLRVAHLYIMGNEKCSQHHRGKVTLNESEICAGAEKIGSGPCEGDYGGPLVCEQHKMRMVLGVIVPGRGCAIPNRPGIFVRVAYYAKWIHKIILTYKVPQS
T2 sequence (Q08048 33-728 limits assumed): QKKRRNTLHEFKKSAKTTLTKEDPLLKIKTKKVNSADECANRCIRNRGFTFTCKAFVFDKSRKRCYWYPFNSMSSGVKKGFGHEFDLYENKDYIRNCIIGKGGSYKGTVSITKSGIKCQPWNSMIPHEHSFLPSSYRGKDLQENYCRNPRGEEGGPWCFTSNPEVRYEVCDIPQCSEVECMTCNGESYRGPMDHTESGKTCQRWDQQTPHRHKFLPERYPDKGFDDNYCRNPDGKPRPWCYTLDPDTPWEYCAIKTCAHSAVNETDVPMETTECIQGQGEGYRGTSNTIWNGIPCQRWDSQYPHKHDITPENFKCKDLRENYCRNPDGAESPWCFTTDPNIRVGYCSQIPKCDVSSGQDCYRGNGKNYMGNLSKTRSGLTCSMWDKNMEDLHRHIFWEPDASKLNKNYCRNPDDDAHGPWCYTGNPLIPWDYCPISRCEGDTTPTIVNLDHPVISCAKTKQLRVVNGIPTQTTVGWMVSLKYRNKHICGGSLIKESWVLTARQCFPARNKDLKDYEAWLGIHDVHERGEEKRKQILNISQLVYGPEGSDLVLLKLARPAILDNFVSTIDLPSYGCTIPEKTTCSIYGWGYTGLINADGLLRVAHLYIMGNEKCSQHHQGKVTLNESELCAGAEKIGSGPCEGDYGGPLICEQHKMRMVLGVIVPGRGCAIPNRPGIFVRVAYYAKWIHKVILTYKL

Row | Binder | Kd [1] | koff [1] | kon [1] | IC50, inhibition of growth/survival of U-87 MG cells [2] | binding result (mouse HGF) | IC50 [3]
1 | B1 | ~0.22 nM | 2.8e-05 s⁻¹ | 130000 M⁻¹ s⁻¹ | < 100 nM | no binding | 0.52 nM
2 | B2 | ~0.099 nM | 2.7e-05 s⁻¹ | 270000 M⁻¹ s⁻¹ | < 100 nM | no binding | –
